Results on seven molecules are retold here after paper PMC11009412, “Pathogenic mutations of human phosphorylation sites affect protein–protein interactions” (Nature Communications, 2024).

This assay relates to BirA*-FLAG-GATAD1 variants in Flp-In-293 cells. Nature of the assay: BioID proximity labelling of full-length GATAD1 variants (SILAC). It counts as cell-based, human. The following applies: GATAD1 WT vs S102P, significant proteins only; for Log2_Ratio.H.L.normalized.WT_S102P_forward: forward experiment (label swap performed, sign inverted against the H/L ratio); for Log2_Ratio.H.L.normalized.WT_S102P_forward / Log2_Ratio.H.L.normalized.WT_S102P_reverse: log2 of normalized H/L ratio; for Ratio.H.L.normalized.WT_S102P_forward: forward experiment; for Log2_Ratio.H.L.normalized.WT_S102P_reverse / Ratio.H.L.normalized.WT_S102P_reverse: reverse experiment. In outline: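 Tetracycline-inducible Flp-In-293 T-REx lines expressing N-terminal BirA*-FLAG GATAD1 variants (WT, S102P, S102D, S102A) were SILAC-labelled, induced with 1 μg/mL tetracycline for 24 h and given 50 μM biotin overnight. Streptavidin-enriched proteins were trypsin-digested on-bead and analysed by LC-MS/MS. Label-swapped log2 SILAC ratios beyond ±1 defined differential proteins (n = 2).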

B1: PPP1R10 (protein, UniProt Q96QC0 1-940, looked up)
Serine/threonine-protein …: MGSGPIDPKELLKGLDSFLNRDGEVKSVDGISKIFSLMKEARKMVSRCTYLNILLQTRSPEILVKFIDVGGYKLLNNWLTYSKTTNNIPLLQQILLTLQHLPLTVDHLKQNNTAKLVKQLSKSSEDEELRKLASVLVSDWMAVIRSQSSTQPAEKDKKKRKDEGKSRTTLPERPLTEVKAETRAEEAPEKKREKPKSLRTTAPSHAKFRSTGLELETPSLVPVKKNASTVVVSDKYNLKPIPLKRQSNVAAPGDATPPAEKKYKPLNTTPNATKEIKVKIIPPQPMEGLGFLDALNSAPVPGIKIKKKKKVLSPTAAKPSPFEGKTSTEPSTAKPSSPEPAPPSEAMDADRPGTPVPPVEVPELMDTASLEPGALDAKPVESPGDPNQLTRKGRKRKSVTWPEEGKLREYFYFELDETERVNVNKIKDFGEAAKREILSDRHAFETARRLSHDNMEEKVPWVCPRPLVLPSPLVTPGSNSQERYIQAEREKGILQELFLNKESPHEPDPEPYEPIPPKLIPLDEECSMDETPYVETLEPGGSGGSPDGAGGSKLPPVLANLMGSMGAGKGPQGPGGGGINVQEILTSIMGSPNSHPSEELLKQPDYSDKIKQMLVPHGLLGPGPIANGFPPGGPGGPKGMQHFPPGPGGPMPGPHGGPGGPVGPRLLGPPPPPRGGDPFWDGPGDPMRGGPMRGGPGPGPGPYHRGRGGRGGNEPPPPPPPFRGARGGRSGGGPPNGRGGPGGGMVGGGGHRPHEGPGGGMGNSSGHRPHEGPGGGMGSGHRPHEGPGGSMGGGGGHRPHEGPGGGISGGSGHRPHEGPGGGMGAGGGHRPHEGPGGSMGGSGGHRPHEGPGHGGPHGHRPHDVPGHRGHDHRGPPPHEHRGHDGPGHGGGGHRGHDGGHSHGGDMSNRPVCRHFMMKGNCRYENNCAFYHPGVNGPPLP
Take B1: the Log2_Ratio.H.L.normalized.WT_S102P_forward was determined as 1.288, the Ratio.H.L.normalized.WT_S102P_forward is 0.4096, the Log2_Ratio.H.L.normalized.WT_S102P_reverse was found to be 1.038 and the Ratio.H.L.normalized.WT_S102P_reverse was found to be 2.0533.

B2: C19orf43 (protein, UniProt Q9BQ61 1-176, looked up)
Telomerase RNA component …: MAARGRRAEPQGREAPGPAGGGGGGSRWAESGSGTSPESGDEEVSGAGSSPVSGGVNLFANDGSFLELFKRKMEEEQRQRQEEPPPGPQRPDQSAAAAGPGDPKRKGGPGSTLSFVGKRRGGNKLALKTGIVAKKQKTEDEVLTSKGDAWAKYMAEVKKYKAHQCGDDDKTRPLVK
Turning to B2, the Log2_Ratio.H.L.normalized.WT_S102P_forward was found to be 2.125, the Ratio.H.L.normalized.WT_S102P_forward turned out to be 0.2293, the Log2_Ratio.H.L.normalized.WT_S102P_reverse worked out at 1.257 and the Ratio.H.L.normalized.WT_S102P_reverse is on record as 2.3903.

B3: WDR83 (protein, UniProt Q9BRX9 1-315, looked up)
WD repeat domain-containing …: MAFPEPKPRPPELPQKRLKTLDCGQGAVRAVRFNVDGNYCLTCGSDKTLKLWNPLRGTLLRTYSGHGYEVLDAAGSFDNSSLCSGGGDKAVVLWDVASGQVVRKFRGHAGKVNTVQFNEEATVILSGSIDSSIRCWDCRSRRPEPVQTLDEARDGVSSVKVSDHEILAGSVDGRVRRYDLRMGQLFSDYVGSPITCTCFSRDGQCTLVSSLDSTLRLLDKDTGELLGEYKGHKNQEYKLDCCLSERDTHVVSCSEDGKVFFWDLVEGALALALPVGSGVVQSLAYHPTEPCLLTAMGGSVQCWREEAYEAEDGAG
On to B3, for which the Log2_Ratio.H.L.normalized.WT_S102P_forward came out at 1.042, the Ratio.H.L.normalized.WT_S102P_forward is listed as 0.4856, the Log2_Ratio.H.L.normalized.WT_S102P_reverse was found to be 1.085 and the Ratio.H.L.normalized.WT_S102P_reverse was 2.1217.

B4: SUGP1 (protein, UniProt Q8IWZ8 1-645, looked up)
SURP and G-patch …: MSLKMDNRDVAGKANRWFGVAPPKSGKMNMNILHQEELIAQKKREIEAKMEQKAKQNQVASPQPPHPGEITNAHNSSCISNKFANDGSFLQQFLKLQKAQTSTDAPTSAPSAPPSTPTPSAGKRSLLISRRTGLGLASLPGPVKSYSHAKQLPVAHRPSVFQSPDEDEEEDYEQWLEIKVSPPEGAETRKVIEKLARFVAEGGPELEKVAMEDYKDNPAFAFLHDKNSREFLYYRKKVAEIRKEAQKSQAASQKVSPPEDEEVKNLAEKLARFIADGGPEVETIALQNNRENQAFSFLYEPNSQGYKYYRQKLEEFRKAKASSTGSFTAPDPGLKRKSPPEALSGSLPPATTCPASSTPAPTIIPAPAAPGKPASAATVKRKRKSRWGPEEDKVELPPAELVQRDVDASPSPLSVQDLKGLGYEKGKPVGLVGVTELSDAQKKQLKEQQEMQQMYDMIMQHKRAMQDMQLLWEKAVQQHQHGYDSDEEVDSELGTWEHQLRRMEMDKTREWAEQLTKMGRGKHFIGDFLPPDELEKFMETFKALKEGREPDYSEYKEFKLTVENIGYQMLMKMGWKEGEGLGSEGQGIKNPVNKGTTTVDGAGFGIDRPAELSKEDDEYEAFRKRMMLAYRFRPNPLNNPRRPYY
Regarding B4, the Log2_Ratio.H.L.normalized.WT_S102P_forward came to 1.6946, the Ratio.H.L.normalized.WT_S102P_forward worked out at 0.3089, the Log2_Ratio.H.L.normalized.WT_S102P_reverse is on record as 1.162 and the Ratio.H.L.normalized.WT_S102P_reverse is 2.2378.

B5: NOL8 (protein, UniProt Q76FK4 1-1167, looked up)
Nucleolar protein 8: MKVNRETKRLYVGGLSQDISEADLQNQFSRFGEVSDVEIITRKDDQGNPQKVFAYINISVAEADLKKCMSVLNKTKWKGGTLQIQLAKESFLHRLAQEREAAKAKKEESTTGNANLLEKTGGVDFHMKAVPGTEVPGHKNWVVSKFGRVLPVLHLKNQHKRKIIKYDPSKYCHNLKKIGEDFSNTIPISSLTWELEGGNDPMSKKRRGEFSDFHGPPKKIIKVQKDESSTGSLAMSTRPRRVIERPPLTQQQAAQKRTCDSITPSKSSPVPVSDTQKLKNLPFKTSGLETAKKRNSISDDDTDSEDELRMMIAKEENLQRTTQPSINESESDPFEVVRDDFKSGVHKLHSLIGLGIKNRVSCHDSDDDIMRNDREYDSGDTDEIIAMKKNVAKVKNSTEFSQMEKSTKKTSFKNRENCELSDHCIKLQKRKSNVESALSHGLKSLNRKSPSHSSSSEDADSASELADSEGGEEYNAMMKNCLRVNLTLADLEQLAGSDLKVPNEDTKSDGPETTTQCKFDRGSKSPKTPTGLRRGRQCIRPAEIVASLLEGEENTCGKQKPKENNLKPKFQAFKGVGCLYEKESMKKSLKDSVASNNKDQNSMKHEDPSIISMEDGSPYVNGSLGEVTPCQHAKKANGPNYIQPQKRQTTFESQDRKAVSPSSSEKRSKNPISRPLEGKKSLSLSAKTHNIGFDKDSCHSTTKTEASQEERSDSSGLTSLKKSPKVSSKDTREIKTDFSLSISNSSDVSAKDKHAEDNEKRLAALEARQKAKEVQKKLVHNALANLDGHPEDKPTHIIFGSDSECETEETSTQEQSHPGEEWVKESMGKTSGKLFDSSDDDESDSEDDSNRFKIKPQFEGRAGQKLMDLQSHFGTDDRFRMDSRFLETDSEEEQEEVNEKKTAEEEELAEEKKKALNVVQSVLQINLSNSTNRGSVAAKKFKDIIHYDPTKQDHATYERKRDDKPKESKAKRKKKREEAEKLPEVSKEMYYNIAMDLKEIFQTTKYTSEKEEGTPWNEDCGKEKPEEIQDPAALTSDAEQPSGFTFSFFDSDTKDIKEETYRVETVKPGKIVWQEDPRLQDSSSEEEDVTEETDHRNSSPGEASLLEKETTRFFFFSKNDERLQGSDLFWRGVGSNMSRNSWEARTTNLRMDCRKKHKDAKRKMKPK
With B5, the Log2_Ratio.H.L.normalized.WT_S102P_forward came to 1.703, the Ratio.H.L.normalized.WT_S102P_forward is recorded as 0.3071, the Log2_Ratio.H.L.normalized.WT_S102P_reverse is 1.269 and the Ratio.H.L.normalized.WT_S102P_reverse is recorded as 2.4103.

B6: NACC1 (protein, UniProt Q96RE7 1-527, looked up)
Nucleus accumbens-associated …: MAQTLQMEIPNFGNSILECLNEQRLQGLYCDVSVVVKGHAFKAHRAVLAASSSYFRDLFNNSRSAVVELPAAVQPQSFQQILSFCYTGRLSMNVGDQFLLMYTAGFLQIQEIMEKGTEFFLKVSSPSCDSQGLHAEEAPSSEPQSPVAQTSGWPACSTPLPLVSRVKTEQQESDSVQCMPVAKRLWDSGQKEAGGGGNGSRKMAKFSTPDLAANRPHQPPPPQQAPVVAAAQPAVAAGAGQPAGGVAAAGGVVSGPSTSERTSPGTSSAYTSDSPGSYHNEEDEEEDGGEEGMDEQYRQICNMYTMYSMMNVGQTAEKVEALPEQVAPESRNRIRVRQDLASLPAELINQIGNRCHPKLYDEGDPSEKLELVTGTNVYITRAQLMNCHVSAGTRHKVLLRRLLASFFDRNTLANSCGTGIRSSTNDPRRKPLDSRVLHAVKYYCQNFAPNFKESEMNAIAADMCTNARRVVRKSWMPKVKVLKAEDDAYTTFISETGKIEPDMMGVEHGFETASHEGEAGPSAEALQ
Turning to B6, the Log2_Ratio.H.L.normalized.WT_S102P_forward was determined as 1.531, the Ratio.H.L.normalized.WT_S102P_forward amounted to 0.346, the Log2_Ratio.H.L.normalized.WT_S102P_reverse is listed as 1.188 and the Ratio.H.L.normalized.WT_S102P_reverse worked out at 2.2785.

B7: ESF1 (protein, UniProt Q9H501 2-851, looked up)
ESF1 homolog: SSKQEIMSDQRFRRVAKDPRFWEMPEKDRKVKIDKRFRAMFHDKKFKLNYAVDKRGRPISHSTTEDLKRFYDLSDSDSNLSGEDSKALSQKKIKKKKTQTKKEIDSKNLVEKKKETKKANHKGSENKTDLDNSIGIKKMKTSCKFKIDSNISPKKDSKEFTQKNKKEKKNIVQHTTDSSLEEKQRTLDSGTSEIVKSPRIECSKTRREMQSVVQLIMTRDSDGYENSTDGEMCDKDALEEDSESVSEIGSDEESENEITSVGRASGDDDGSEDDEEEDEDEEEDEDEDSEDDDKSDSGPDLARGKGNIETSSEDEDDTADLFPEESGFEHAWRELDKDAPRADEITRRLAVCNMDWDRLKAKDLLALFNSFKPKGGVIFSVKIYPSEFGKERMKEEQVQGPVELLSIPEDAPEKDWTSREKLRDYQFKRLKYYYAVVDCDSPETASKIYEDCDGLEFESSCSFIDLRFIPDDITFDDEPKDVASEVNLTAYKPKYFTSAAMGTSTVEITWDETDHERITMLNRKFKKEELLDMDFQAYLASSSEDEEEIEEELQGDDGVNVEEDGKTKKSQKDDEEQIAKYRQLLQVIQEKEKKGKENDMEMEIKWVPGLKESAEEMVKNKLEGKDKLTPWEQFLEKKKEKKRLKRKQKALAEEASEEELPSDVDLNDPYFAEEVKQIGINKKSVKSAKDGTSPEEEIEIERQKAEMALLMMDEDEDSKKHFNYNKIVEHQNLSKKKKKQLMKKKELIEDDFEVNVNDARFQAMYTSHLFNLDPSDPNFKKTKAMEKILEEKARQRERKEQELTQAIKKKESEIEKESQRKSIDPALSMLIKSIKTKTEQFQARKKQKVK
B7: the Log2_Ratio.H.L.normalized.WT_S102P_forward was 1.318, the Ratio.H.L.normalized.WT_S102P_forward came out at 0.401, the Log2_Ratio.H.L.normalized.WT_S102P_reverse amounted to 1.077 and the Ratio.H.L.normalized.WT_S102P_reverse was determined as 2.1103.
